The values below are quoted from earlier work in PMC3290099.

This data set has as its target CIB1 (Homo sapiens) (UniProt Q99828).
Sequence of UniProt Q99828 (Q99828 2-191): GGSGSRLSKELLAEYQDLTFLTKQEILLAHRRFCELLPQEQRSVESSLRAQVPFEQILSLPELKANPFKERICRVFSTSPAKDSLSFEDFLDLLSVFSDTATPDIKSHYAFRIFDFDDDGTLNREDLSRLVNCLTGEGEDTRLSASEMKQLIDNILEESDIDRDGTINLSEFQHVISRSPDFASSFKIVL

A word on the Kd: it is a measure of binding affinity in units of concentration. Consider Integrin αIIb (from UniProt P08514), for which the Kd is 1400 nM.
